Tested on: SUM-159 breast cancer cells
Experiment: Chemoinvasion of breast cancer cells in the microfluidic platform
Format: cell-based
Procedure: We encapsulated highly invasive SUM-159 breast cancer cells within our platform. Cells were encapsulated in a mixture of Collagen:Matrigel at a ratio of 1:1 (final collagen density is 1 mg/mL) and the solution was injected into the tumor region while cell-free collagen type I (2 mg/mL) was injected into the stromal region. In one platform, 50 ng/mL of epidermal growth factor (EGF) was injected to the side channels to stimulate chemoinvasion, while in a control platform, no EGF was injected. We observed the migration of the cells throughout the stromal region over the course of four days in both conditions.
There was noticeable collagen deformation showing that the cells are actively sensing their biophysical environment and reacting to it. […] Cells without EGF stimulation did invade as well but not by the same distance.

[1] = 50 ng/mL EGF vs -EGF control, day 4

B1: EGF: epidermal growth factor injected to the side channels to stimulate chemoinvasion (protein, UniProt P01133 23-1207, looked up)
Pro-epidermal growth factor: PQHWSCPEGTLAGNGNSTCVGPAPFLIFSHGNSIFRIDTEGTNYEQLVVDAGVSVIMDFHYNEKRIYWVDLERQLLQRVFLNGSRQERVCNIEKNVSGMAINWINEEVIWSNQQEGIITVTDMKGNNSHILLSALKYPANVAVDPVERFIFWSSEVAGSLYRADLDGVGVKALLETSEKITAVSLDVLDKRLFWIQYNREGSNSLICSCDYDGGSVHISKHPTQHNLFAMSLFGDRIFYSTWKMKTIWIANKHTGKDMVRINLHSSFVPLGELKVVHPLAQPKAEDDTWEPEQKLCKLRKGNCSSTVCGQDLQSHLCMCAEGYALSRDRKYCEDVNECAFWNHGCTLGCKNTPGSYYCTCPVGFVLLPDGKRCHQLVSCPRNVSECSHDCVLTSEGPLCFCPEGSVLERDGKTCSGCSSPDNGGCSQLCVPLSPVSWECDCFPGYDLQLDEKSCAASGPQPFLLFANSQDIRHMHFDGTDYGTLLSQQMGMVYALDHDPVENKIYFAHTALKWIERANMDGSQRERLIEEGVDVPEGLAVDWIGRRFYWTDRGKSLIGRSDLNGKRSKIITKENISQPRGIAVHPMAKRLFWTDTGINPRIESSSLQGLGRLVIASSDLIWPSGITIDFLTDKLYWCDAKQSVIEMANLDGSKRRRLTQNDVGHPFAVAVFEDYVWFSDWAMPSVMRVNKRTGKDRVRLQGSMLKPSSLVVVHPLAKPGADPCLYQNGGCEHICKKRLGTAWCSCREGFMKASDGKTCLALDGHQLLAGGEVDLKNQVTPLDILSKTRVSEDNITESQHMLVAEIMVSDQDDCAPVGCSMYARCISEGEDATCQCLKGFAGDGKLCSDIDECEMGVPVCPPASSKCINTEGGYVCRCSEGYQGDGIHCLDIDECQLGEHSCGENASCTNTEGGYTCMCAGRLSEPGLICPDSTPPPHLREDDHHYSVRNSDSECPLSHDGYCLHDGVCMYIEALDKYACNCVVGYIGERCQYRDLKWWELRHAGHGQQQKVIVVAVCVVVLVMLLLLSLWGAHYYRTQKLLSKNPKNPYEESSRDVRSRRPADTEDGMSSCPQPWFVVIKEHQDLKNGGQPVAGEDGQAADGSMQPTSWRQEPQLCGMGTEQGCWIPVSSDKGSCPQVMERSFHMPSYGTQTLEGGVEKPHSLLSANPLWQQRALDPPHQMELTQ
modifications: Pro-epidermal growth factor
notes: epidermal growth factor injected to the side channels to stimulate chemoinvasion
With B1 the “invasion distance into the stromal region” value (50 ng/mL EGF in side channels vs -EGF control, by day 3) was “invaded further”, the “cell count as a function of migration distance” value [1] was “more cells had migrated a greater distance” and the “number of cells in the media channels” value [1] was “a higher number of cells were seen in the channels”.
